Test results from article PMC5116745, “Importance of the C-terminal histidine residues of Helicobacter pylori GroES for Toll-like receptor 4 binding and interleukin-8 cytokine production” (Scientific Reports, 2016).
Numbering of substitutions follows the chain as printed. Names and notes keep the numbering of the source.

B1: Helicobacter pylori GroES (HpGroES), wild type (natural protein)
chain: MKFQPLGERVLVERLEEENKTSSGIIIPDNAKEKPLMGVVKAVSHKISEGCKCVKEGDVIAFGKYKGAEIVLDGTEYMVLELEDILGIVGSGSCCHTGNHDHKHAKEHEACCHDHKKH
notes: GroES (HspA) of Helicobacter pylori; domain A plus C-terminal domain B (residues 91-118); Protein was dialysed with 4 molar equivalents of NiSO4 before size exclusion (nickel-loaded); also called WT; heat shock protein (HSP) A; source: E. coli M15 (pQE30), purified (Ni2+-chelating Sepharose, Superdex 200 size exclusion)
B2: HpGroES H102A mutant (natural protein, Helicobacter pylori, UniProt P0A0R3 1-118, looked up)
chain: B1 chain with H102A
notes: GroES (HspA) of Helicobacter pylori with a point mutation in domain B; Same construct as m1 with the mutation; nickel-loaded during purification; source: E. coli M15 (pQE30), purified (Ni2+-chelating Sepharose, Superdex 200 size exclusion)
B3: HpGroES H113A mutant (natural protein, Helicobacter pylori, UniProt P0A0R3 1-118, looked up)
chain: B1 chain with H113A
notes: as for B2
B4: HpGroES H118A mutant (natural protein, Helicobacter pylori, UniProt P0A0R3 1-118, looked up)
chain: B1 chain with H118A
notes: as for B2
B5: HpGroES H108A mutant (natural protein, Helicobacter pylori, UniProt P0A0R3 1-118, looked up)
chain: B1 chain with H108A
notes: as for B2
B6: HpGroES H96A mutant (natural protein, Helicobacter pylori, UniProt P0A0R3 1-118, looked up)
chain: B1 chain with H96A
notes: as for B2
B7: HpGroES H115A mutant (natural protein, Helicobacter pylori, UniProt P0A0R3 1-118, looked up)
chain: B1 chain with H115A
notes: as for B2
B8: HpGroES H104A mutant (natural protein, Helicobacter pylori, UniProt P0A0R3 1-118, looked up)
chain: B1 chain with H104A
notes: as for B2
B9: HpGroES H100A mutant (natural protein, Helicobacter pylori, UniProt P0A0R3 1-118, looked up)
chain: B1 chain with H100A
notes: as for B2

Molecular target: the molecule itself
Test: SEC; HiLoad 16/600 Superdex 200 pg; 150 mM NaCl, 25 mM potassium phosphate pH 7.4, 1 mM DTT, 0.3% glycerol; 2 ml/min
Conditions: not given

| Molecule | stoichiometry N |
| --- | --- |
| B1 | 7 |
| B2 | 7 |
| B3 | 7 |
| B4 | 7 |
| B5 | 7 |
| B6 | 7 |
| B7 | 7 |
| B8 | 7 |
| B9 | 7 |

Molecular target: recombinant human TLR4 protein (human) (UniProt O00206)
Sequence (O00206 24-631): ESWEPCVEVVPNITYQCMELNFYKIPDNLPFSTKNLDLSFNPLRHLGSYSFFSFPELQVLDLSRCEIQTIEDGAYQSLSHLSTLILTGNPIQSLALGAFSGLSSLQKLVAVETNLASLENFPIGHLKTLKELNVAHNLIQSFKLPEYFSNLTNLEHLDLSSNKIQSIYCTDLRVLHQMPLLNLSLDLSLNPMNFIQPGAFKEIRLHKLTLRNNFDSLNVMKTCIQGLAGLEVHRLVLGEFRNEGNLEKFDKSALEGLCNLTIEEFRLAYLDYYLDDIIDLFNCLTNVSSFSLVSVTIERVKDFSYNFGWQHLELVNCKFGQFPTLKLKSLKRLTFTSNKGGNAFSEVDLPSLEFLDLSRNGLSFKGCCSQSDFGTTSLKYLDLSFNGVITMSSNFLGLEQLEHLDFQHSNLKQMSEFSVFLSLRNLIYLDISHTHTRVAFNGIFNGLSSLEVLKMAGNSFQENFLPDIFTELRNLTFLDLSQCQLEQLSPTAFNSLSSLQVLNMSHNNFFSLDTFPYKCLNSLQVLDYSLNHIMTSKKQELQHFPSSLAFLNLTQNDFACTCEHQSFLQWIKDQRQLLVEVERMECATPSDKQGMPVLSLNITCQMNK
Test: SPR; Biacore T200; TLR4 immobilised on CM5 chip (6000 RU); HpGroES proteins flowed at 7.8125-1000 nM, 30 μl/min, 25 °C; PBS with 0.05% P20; Kd from saturation curves (GraphPad Prism)
Conditions: not given

| Molecule | Kd |
| --- | --- |
| HpGroES H100A mutant (from UniProt P0A0R3 1-118) (natural protein) | > 1000 nM |

Molecular target: T1, recombinant human TLR4 protein (human, UniProt O00206 24-631)
T1 construct: Toll-like receptor 4, human, recombinant protein from R&D Systems; R&D Systems' recombinant human TLR4 is, as far as recalled, the extracellular domain with a His tag (some products are a complex with MD-2); also called Toll-like receptor 4; source: bought: R&D Systems
T1 sequence (O00206 24-631): as above
Test: as above
Conditions: both partners purified

| Molecule | Kd |
| --- | --- |
| B1 | 100 nM |
| B2 | > 1000 nM |
| B3 | > 1000 nM |
| B4 | > 1000 nM |
| B5 | > 1000 nM |
| B6 | 110 nM |
| B7 | 150 nM |
| B8 | 100 nM |
